B1: Hammerhead Ribozyme (parent)
chain: ACCGGAUGUGCUUUCCGGUCUGAUGAGUCCGUGAGGACGAAACAG

Variants of: B1
Test: self-cleavage, relative activity (ratio to wild type); higher = more cleavage; co-transcriptional

Variant	self-cleavage
U13C U28C	1.29
C11A A23C	0.491
G33U	0.977
C30U A40U	0.345
C16U	0.983
A1G G27A	1.07
C29U A40C	0.51
U9G G25A	0.205
A1U G5A	0.491
G18C A42G	0.372
U24A C43G	0.374
G17A C38A	0.488
U7A C38A	0.49
U19A G33C	0.291
C15U G35A	0.756
G4C C16A	1.65
U7C A40C	0.418
G5C G36U	0.33
C15U C20U	0.627
G8A A44C	0.508
G18A C38G	0.453
G5C G39U	0.251
U9C C38G	0.805
U9G C29A	0.655

Variant	self-cleavage
U9A C15U	0.848
G35A A42C	0.354
G22C A37C	0.286
A6G U12A	0.819
C2A U12G	0.736
G39A A44U	0.342
C38U G45A	0.689
G36A A41U	0.279
G36A A41C	0.382
A34U C38G	0.403
G4A A44C	0.388
U7G U32C	1.03
A34C A44U	0.512
G36C A37C	0.296
U9G G17A	0.456
C11A C29U	1.08
G8U A26G	0.351
U13A G18U	1.23
U24A A34U	0.849
C16U G33C	1.17
G33U C43U	0.598
C3A U7C	0.386
A23U G35C	0.356
A1C A34G	0.385

Variant	self-cleavage
U13A C16A	1.49
U24C U28C	1.06
C2G U24A	0.476
G5A A41G	0.327
C2G C20U	0.344
U32A G35A	0.75
G35C G39U	0.307
C15U A37G	0.789
U9C A44G	1.32
A6U G17A	0.401
U21A G39U	0.301
A34U G39A	0.288
U19A G25U	0.35
G10C G35U	0.818
G8C G22A	0.347
G33C A34G	1.19
G4A G27U	0.366
G4A A41G	0.287
A6U G45U	0.468
U9A G17A	0.539
G27C A41U	0.333
G10C C43A	0.354
G4C G35C	0.341
C3G U14G	0.557

Variant	self-cleavage
C16U A44G	1.34
U19C C30A	0.416
G8U G10U	1.04
G25U G39U	0.295
G27A C29A	0.42
U24G G33C	0.81
U9C A26U	0.671
A40G C43G	0.358
U7A C30G	1.05
G22U U24A	0.316
A1U U14A	0.353
G8A A40G	0.235
U7A G39C	0.321
U9G G36C	0.593
G4C A34U	0.585
C3G G39C	0.288
C15G A37C	0.364
U24G U32A	1.08
C16G A23G	0.406
G33A A42C	0.394
A1U U21A	0.614
C3A G4C	0.216
A37G A40C	0.407
C29G	0.766

Variant	self-cleavage
G8C U28C	1.16
G4U G8U	0.933
A6U G33U	0.403
G18U A41G	0.375
C30U G39A	0.278
A1C C38G	0.39
U13G A23G	0.368
G5C U32A	0.549
A6C C29A	0.44
G36A G39C	0.306
U9A G39A	0.307
U14C A44U	0.393
C2A C29U	0.584
G18U G39A	0.339
A23G C30G	0.248
C29U U32A	0.902
C11A U28G	0.964
A6C U12G	0.991
A6C G22C	0.296
C3A G18C	0.365
C29G A42G	0.269
G18A G45A	0.354
G8A G31U	1.14
C2G A40U	0.287

Variant	self-cleavage
C29A A40G	0.294
C2G C16A	0.335
G8A G22A	0.403
U14G U21A	0.741
U24C A44G	1.18
C20U A34U	0.356
U12C U14A	0.832
A1U G10U	0.997
G10U A23U	0.421
G5C U28G	0.345
U32A A40C	0.622
C11A A44C	0.569
G10C A42G	0.278
G35A G36A	0.508
C3G U28C	0.447
U12C C43A	0.278
A1C A40C	0.446
U12A G17C	0.423
U12C C30U	0.683
G5U G17U	0.351
U28C C43A	0.289
G31A G36U	0.552
U14G A23C	0.36
U12C G31C	0.913

Variant	self-cleavage
C2U C43A	0.361
A23C A34U	0.298
C16G C38A	0.453
A26C A34U	0.344
C30A G35C	0.793
C11U C15U	1.18
A26U C30G	0.423
A26C C43G	0.31
G10U C20G	0.343
U12G G45U	0.716
G8U G25C	0.302
C20U U24G	0.714
C3G G10A	0.771
U7G G17A	0.666
C16U U32A	1.02
G10A C11A	1.09
G10U C30U	1.07
U14C A37U	0.624
U7A C20G	0.376
C11G A34U	1.07
G5U C16A	1.11
A23C C43U	0.325
C15G C43U	0.248
A1C U32A	0.363

Variant	self-cleavage
A1C U32C	0.514
C20G C43U	0.298
U9A G45A	0.707
U12A U13A	1.23
U21C C30G	0.403
G10U C11U	1.14
G5U A44G	0.918
U28G G33A	1.02
G22U C29G	0.317
G4C A23C	0.299
G4C A23G	0.225
C16U A34C	1
U7G A37C	1.29
G10C A41C	0.299
A1U G45A	0.409
C2G C11A	0.378
G8U U24A	1.24
G5U C11U	0.458
G5U A41G	0.316
C11U A44G	1.35
A34G	0.902
G17A G39C	0.333
C11G U21C	0.987
U12G C30A	0.795

Variant	self-cleavage
G5U G36C	0.32
U14A G36U	0.528
C2U U13G	1.24
G25C A26G	0.265
C16U G35A	0.911
C3A G17A	0.634
G39U A40C	0.295
G17C G45C	0.4
G18A G36U	0.496
A1C U21C	0.293
U12G U14A	0.832
U7G A26G	0.289
U24A G39A	0.382
G27C C43G	0.26
C15G A40G	0.42
G10U C29G	0.621
C29A C43A	0.345
A40U A42G	0.261
U9C C16A	1.04
A26G C29A	0.402
C20U U28C	0.661
A1G U24A	1.78
G10U G17C	0.649
G8U A34C	0.925

Variant	self-cleavage
C3A U21C	0.376
G18C U19C	0.375
G5U U19A	0.29
G5C U7G	0.611
C11G G36U	0.69
U32G A40C	0.372
G5C G27C	0.354
U21C U24A	1.13
A26G G33U	0.344
C3G G5A	0.57
G36U A41C	0.309
C15U C16G	0.708
G10A A34U	0.919
G25U G27U	0.31
U13C U32C	1.11
A1U C43G	0.448
C2U A42C	0.358
G33C A44U	0.512
C20A U32C	0.541
C16U G22U	0.327
U13G A37C	0.96
G8C U19G	0.428
C2U C16U	1.07
C15A U28A	0.413

Variant	self-cleavage
U28A C29A	0.682
A26C U32G	0.42
G22U C43U	0.305
C2U C29G	1.02
G31U U32G	0.871
G18A A44G	0.702
U28A A34C	0.623
G8A G45C	0.512
C3G U13C	0.655
U13C A23U	0.237
U7C A37G	0.771
G31C U32A	0.908
U12A G31C	0.801
C16A C20A	0.474
U12C C38U	0.832
G33C G39C	0.375
C3U A6U	0.609
G18U G35C	0.515
U9C U19G	0.525
G4C U24A	0.777
G31U A41U	0.324
A1C G33C	0.321
G10C C38U	1.16
A23C A37U	0.42

Variant	self-cleavage
U13G G25C	0.315
U13G G25U	0.303
G8A U32A	1.14
C15A A37U	0.434
A23U A44G	0.706
U14C A23G	0.268
U7G C30U	1.34
C2G A42U	0.292
G36C A44G	0.588
U24G A37G	0.659
U14A G27A	0.771
C2U G27C	0.654
G8A A34G	1.06
A26U A34U	0.584
A1G G31C	1.64
C29A G33U	0.674
A6U G35U	0.499
C15A G36A	0.407
G22A U28C	0.294
G17U	0.855
G17C A34G	0.436
G35U A37U	0.52
G35U A37C	0.548
A23U C43A	0.377

Variant	self-cleavage
C11G G27A	0.839
C29U G31U	0.783
G5U	0.934
U12G A40C	0.366
C2G G45U	0.335
C38A A44C	0.405
U9G C15A	0.758
C3U	1.03
U14C A42U	0.423
A6U U14C	1.07
G8U G33A	0.938
C11G C30A	1.26
G18C A44U	0.354
G18C A44C	0.435
G5A G27C	0.61
G35A A40U	0.317
G27U C38U	0.683
C20G A42G	0.324
A1U U9A	0.565
A6C G33C	0.472
C15G C30G	0.618
U13G G27A	0.66
A34C A37G	0.588
A34C A37U	0.444

Variant	self-cleavage
C3A G45A	0.358
G10C G25A	0.368
C20U G39A	0.383
U13C C20A	0.573
A37G C38G	0.79
G17A U21C	0.294
U9A C29G	0.602
C15A G27U	0.4
C15A G35C	0.509
C16U A42C	0.363
G10C U14G	0.606
C16G U28G	0.592
U9G A44U	0.388
C30A G36U	0.639
A6G G17U	0.393
G31A G35A	1.05
G5U U24G	0.636
G5U U24A	0.809
G22C G31A	0.25
G10C C11A	1.11
U9A A41G	0.357
U9A A41C	0.455
